Sequences and labels used below:
T1: cynomolgus TREM-1 on cells (TE426.27 reporter cell line) (cynomolgus monkey)
T1 chain: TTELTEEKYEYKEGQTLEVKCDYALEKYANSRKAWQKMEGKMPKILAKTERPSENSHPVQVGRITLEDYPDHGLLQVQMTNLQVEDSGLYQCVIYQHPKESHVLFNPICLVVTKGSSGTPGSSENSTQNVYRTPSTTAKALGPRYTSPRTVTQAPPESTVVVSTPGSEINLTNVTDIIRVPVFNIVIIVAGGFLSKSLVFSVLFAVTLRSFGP

T2: cynomolgus TREM-1-Fc (cynomolgus monkey)
T2 construct: also called cTREM-1
T2 chain: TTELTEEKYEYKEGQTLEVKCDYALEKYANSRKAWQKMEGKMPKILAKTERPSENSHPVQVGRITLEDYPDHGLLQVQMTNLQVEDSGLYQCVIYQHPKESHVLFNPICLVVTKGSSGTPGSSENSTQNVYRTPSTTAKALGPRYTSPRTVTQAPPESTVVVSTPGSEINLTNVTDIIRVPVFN

B1: mAb 0170 (humanised TREM-1 antibody, mAb 0170 of WO2013/120553) (antibody, V domains shown)
VH: EVQLVESGGGLVQPGGSLKLSCAASGFTFSTYAMHWVRQASGKGLEWVGRIRTKSSNYATYYAASVKGRFTISRDDSKNTAYLQMNSLKTEDTAVYYCTRDMGIRRQFAYWGQGTLVTVSS
VL: DIVLTQSPDSLAVSLGERATINCRASESVDTFDYSFLHWYQQKPGQPPKLLIYRASNLESGVPDRFSGSGSGTDFTLTISSLQAEDVAVYYCQQSNEDPYTFGQGTKLEIKR
notes: also called mAb 170
B2: mAb 0318 (mAb 0170 variant, light chain E27Q, E97Q) (antibody, human IgG4 S228P, kappa, V domains shown)
VH: B1 VH
VL: B1 VL with E27Q, E97Q
notes: Charge patch mutations
B3: mAb 0330 (mAb 0170 variant, light chain F32A, E27Q, E97Q) (antibody, human IgG4 S228P, kappa, V domains shown)
VH: B1 VH
VL: B1 VL with E27Q, F32A, E97Q
B4: mAb 0322 (mAb 0170 variant, light chain F32A) (antibody, human IgG4 S228P, kappa, V domains shown)
VH: B1 VH
VL: B1 VL with F32A
B5: mAb 0319 (mAb 0170 variant, light chain E97S) (antibody, human IgG4 S228P, kappa, V domains shown)
VH: B1 VH
VL: B1 VL with E97S
notes: Charge patch mutation
B6: mAb 0317 (mAb 0170 variant, light chain E27Q, E97S) (antibody, human IgG4 S228P, kappa, V domains shown)
VH: B1 VH
VL: B1 VL with E27Q, E97S
notes: Charge patch mutations
B7: Fab region of mAb 0170 (Fab, V domains shown)
VH: B1 VH
VL: B1 VL
notes: Crystallised alone; packs as Fab-Fab dimers; also called Fab 0170; mAb 170 Fab region
B8: mAb 0324 (mAb 0170 variant, heavy chain A59Y) (antibody, human IgG4 S228P, kappa, V domains shown)
VH: B1 VH with A59Y
VL: B1 VL
B9: mAb 0323 (mAb 0170 variant, light chain F32S) (antibody, human IgG4 S228P, kappa, V domains shown)
VH: B1 VH
VL: B1 VL with F32S
B10: mAb 0320 (mAb 0170 variant, light chain E97Q) (antibody, human IgG4 S228P, kappa, V domains shown)
VH: B1 VH
VL: B1 VL with E97Q
notes: Charge patch mutation
B11: mAb 0325 (mAb 0170 variant, heavy chain N57S) (antibody, human IgG4 S228P, kappa, V domains shown)
VH: B1 VH with N57S
VL: B1 VL
B12: mAb 0332 (mAb 0170 variant, heavy chain A59Y, light chain E27Q, E97Q) (antibody, human IgG4 S228P, kappa, V domains shown)
VH: B1 VH with A59Y
VL: B1 VL with E27Q, E97Q
B13: mAb 0333 (mAb 0170 variant, heavy chain A59Y, light chain F32A, E27Q, E97Q) (antibody, human IgG4 S228P, kappa, V domains shown)
VH: B1 VH with A59Y
VL: B1 VL with E27Q, F32A, E97Q
B14: mAb 0321 (mAb 0170 variant, light chain E27Q) (antibody, human IgG4 S228P, kappa, V domains shown)
VH: B1 VH
VL: B1 VL with E27Q
notes: Charge patch mutation

The record followed here is patent US20190185560A1 (Novo Nordisk, published 2019).

Substitutions are numbered along the chain they refer to. In names and notes the source's numbering stands.

For one series, the target named is T1, cynomolgus TREM-1 on cells (TE426.27 …). Nature of the series: cell-based or functional assay.
For B1, the “IC50: inhibition of luminescence of TE426.27 cynomolgus TREM-1 reporter cells stimulated with PGN and recombinant PGLYRP1” value came out at 6 nM.
The same measure, in the same setting: next, B2: 5.6 nM; B3: 10.7 nM; B4: 5.9 nM.
On the same count and under the same terms, next, B5: 17.7 nM; B6: 9.5 nM.

The next series deals with the molecule itself. Nature of the series: X-ray crystal structure of the Fab region of mAb 0170 (self-interaction in the crystal).
Protocol: The crystal was transferred to a drop consisting of 2 μL 35% (w/v) PEG3350, 200 mM K₂HPO₄ and mounted in a 0.2 mm diameter litholoop (Molecular Dimensions Limited) and flash-cooled in liquid nitrogen.
Data were collected to a resolution of 2.40 Å. […] The search models were structures of the heavy chain from the pdb entry 1AD0.pdb (85% identity) and the light chain from the pdb entry 2QRG (94% identity).
For the molecule B7, the binding result is reported as “binds”.

In another series the target is T2, cynomolgus TREM-1-Fc. Nature of the series: SPR (ProteOn), antibody captured via anti-Fc, TREM-1-Fc as analyte, 1:1 Langmuir fit, 25 C. Here is the method:
Binding studies were performed on a ProteOn Analyzer (BioRad) that measures molecular interactions in real time through surface plasmon resonance. Experiments were run at 25° C. and the samples were stored at 15° C. in the sample compartment. The signal (RU, response units) reported by the ProteOn is directly correlated to the mass on the individual sensor chip surfaces in the six parallel flow cells. Anti-human Fc monoclonal or anti-murine Fc polyclonal antibody from Biacore human or mouse Fc capture kits were immobilized in horizontal direction onto flow cells of a GLM sensor chip according to the manufacturer's instructions. The final immobilization level of capture antibody was approximately 2600-6000 RU in each experiment. The capture of purified monoclonal mouse or recombinantly expressed anti-hTREM-1 antibodies was conducted by diluting the antibodies to 5-10 nM into running buffer (10 mM Hepes 0.15 M NaCl, 5 mM EDTA, 0.05% surfactant P20, pH 7.4) followed by injection in vertical direction at 30 μL/min for 60 sec, creating reference interspots adjacent to all flow cells with only anti-Fc antibody immobilized. […] Binding of hTREM-1 or cTREM-1 proteins was conducted by injecting analyte (antigen) over all flow cells in horizontal direction to allow for comparative analyses of binding to different captured anti-TREM-1 antibodies relative to binding to the reference interspot. hTREM-1 or cTREM-1 proteins were diluted serially 1:3 to 1.2-100 nM or into running buffer, injected at 100 μL/min for 250 s and allowed to dissociate for 600 s. The GLM surface was regenerated after each injection cycle of analyte via two 18 s injections of 10 mM Glycine, pH 1.7 and 50 mM NaOH at 100 μL/min. This regeneration step removed the anti-TREM-1 antibody and any bound TREM-1 protein from the immobilized capture antibody surface and allowed for the subsequent binding of the next interaction sample pair.
What is called Kd is the free concentration of one partner at which half of the binding sites on the other are occupied at equilibrium, for simple one-to-one binding. Read a low Kd as tighter binding. On to B1, for which the dissociation constant Kd stood at 2 nM.
B8 showed an equilibrium dissociation constant (Kd) of 4 nM.
Still for that read-out and setting: next, B2: 2 nM.
The same measure, in the same setting: the result for B9 reads 0.6 nM; that for B3, 0.1 nM; that for B10, 3 nM.
Still for that read-out and setting: the result for B4 reads 0.1 nM; that for B11, 1 nM; that for B12, 4 nM.
Take B5: the affinity, expressed as Kd, was 2 nM.
On the same count and under the same terms, the result for B13 reads 0.3 nM.
The same measure, in the same setting: next, B6: 3 nM; B14: 2 nM.
